# Results from IntAct's records for PubMed 10660620.
# Target: pilra_human PILRA (UniProt Q9UKJ1)
# Sequence (Q9UKJ1 whole entry): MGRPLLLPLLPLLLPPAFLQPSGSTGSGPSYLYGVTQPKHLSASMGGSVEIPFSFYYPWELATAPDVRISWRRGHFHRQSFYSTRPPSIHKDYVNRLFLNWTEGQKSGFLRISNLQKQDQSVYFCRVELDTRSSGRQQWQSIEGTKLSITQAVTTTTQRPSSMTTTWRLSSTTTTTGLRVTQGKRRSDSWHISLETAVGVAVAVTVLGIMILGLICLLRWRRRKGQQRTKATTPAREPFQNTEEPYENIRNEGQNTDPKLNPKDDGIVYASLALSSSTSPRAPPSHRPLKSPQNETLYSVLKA
# Sequence of Tyrosine-protein phosphatase non-receptor type 6 (Homo sapiens), P29350 D419A (P29350 whole entry D419A): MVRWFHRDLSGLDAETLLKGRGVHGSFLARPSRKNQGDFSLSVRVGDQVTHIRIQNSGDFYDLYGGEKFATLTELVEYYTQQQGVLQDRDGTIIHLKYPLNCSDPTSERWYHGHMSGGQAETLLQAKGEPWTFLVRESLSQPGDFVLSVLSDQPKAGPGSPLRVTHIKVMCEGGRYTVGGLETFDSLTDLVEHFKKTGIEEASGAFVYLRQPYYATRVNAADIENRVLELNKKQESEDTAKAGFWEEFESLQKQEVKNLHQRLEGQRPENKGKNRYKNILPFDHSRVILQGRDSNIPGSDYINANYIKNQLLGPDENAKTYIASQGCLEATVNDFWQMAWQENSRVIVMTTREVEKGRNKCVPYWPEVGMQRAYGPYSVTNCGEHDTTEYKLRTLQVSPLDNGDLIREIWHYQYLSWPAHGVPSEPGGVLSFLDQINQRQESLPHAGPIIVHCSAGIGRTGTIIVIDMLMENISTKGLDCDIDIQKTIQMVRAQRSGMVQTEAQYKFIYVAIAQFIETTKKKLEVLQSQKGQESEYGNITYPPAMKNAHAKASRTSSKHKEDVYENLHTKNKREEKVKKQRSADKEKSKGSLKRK
substance,measurement,value
"Tyrosine-protein phosphatase non-receptor type 6 (Homo sapiens), P29350 D419A",effect of a mutation on the interaction,increasing interaction
